Measurements taken from patent publication US20220242935A1.

Key:
Experiment in all cases: crystal structure of the Fab-NA complex
[1] = target: N1 NA ectodomain of A/California/04/2009 (H1N1) (influenza A virus A/California/04/2009 (H1N1)) (UniProt Q6DPI6)
[2] = target: N9 NA ectodomain of A/Hunan/02650/2016 (H7N9) (influenza A virus A/Hunan/02650/2016 (H7N9))
[3] = target: N2 NA ectodomain of A/Japan/305/1957 (H2N2) (influenza A virus A/Japan/305/1957 (H2N2))

1G01 Fab
total buried surface area on the NA [1]: 800 Å2

1G04 Fab
total buried surface area on the NA [2]: 1030 Å2

1E01 Fab
total buried surface area on the NA [3]: 900 Å2
